In US8986655 one finds EC50 (read off the curve) data, which are given here for 1 substance.

The target of this assay is prostate-specific membrane antigen (PSMA), dimeric isoform (UniProt Q04609). The assay is described as follows: phage-displayed ELISA on 1 µg/mL PSMA dimer, HRP activity. A general note: An ELISA detects its analyte on a solid surface through an enzyme-linked reagent.
Chain of prostate-specific membrane antigen (PSMA), dimeric isoform (Q04609 44-750): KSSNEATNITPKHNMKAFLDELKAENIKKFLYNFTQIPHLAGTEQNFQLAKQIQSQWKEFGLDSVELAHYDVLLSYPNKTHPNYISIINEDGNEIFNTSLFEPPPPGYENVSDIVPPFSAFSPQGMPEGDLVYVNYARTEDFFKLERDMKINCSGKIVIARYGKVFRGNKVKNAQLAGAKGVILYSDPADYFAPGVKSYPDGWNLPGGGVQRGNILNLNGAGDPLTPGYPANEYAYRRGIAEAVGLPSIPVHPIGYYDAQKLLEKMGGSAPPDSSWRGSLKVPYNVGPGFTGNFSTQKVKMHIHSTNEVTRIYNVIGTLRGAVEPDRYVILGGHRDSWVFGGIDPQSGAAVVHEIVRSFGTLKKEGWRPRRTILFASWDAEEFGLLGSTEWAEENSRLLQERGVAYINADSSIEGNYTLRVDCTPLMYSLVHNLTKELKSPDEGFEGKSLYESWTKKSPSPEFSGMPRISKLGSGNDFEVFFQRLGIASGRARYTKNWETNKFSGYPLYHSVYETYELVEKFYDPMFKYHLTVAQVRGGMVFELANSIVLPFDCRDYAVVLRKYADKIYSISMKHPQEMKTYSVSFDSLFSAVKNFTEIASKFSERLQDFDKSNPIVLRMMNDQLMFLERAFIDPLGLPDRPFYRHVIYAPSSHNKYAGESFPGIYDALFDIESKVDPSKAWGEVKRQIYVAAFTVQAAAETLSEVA

The substance “phage-displayed peptide 1, CALCEFLG [SEQ ID NO: 1]” returned an EC50 (read off the curve) of 0.2 nM.

By EC50 (read off the curve) is commonly meant the concentration needed to bring the measured effect to its halfway point.
